According to publication PMC9692563, “The HIV-1 Integrase C-Terminal Domain Induces TAR RNA Structural Changes Promoting Tat Binding”:

Legend:
[1] = tested on: Tat (HIV-1 primary isolate 133); assay: BLI; settings: EMSA: 20 mM MES pH 6.0, 150 mM NaCl, 2 mM DTT, 2 mM MgCl2, BSA, 8% PEG8000, 37 C 30 min (IN-FLm 2 h at 4 C); BLI: 50 mM HEPES pH 7.5, 200 mM NaCl, 2 mM BME, 5% …
IN-CTD-dCT [2] = molecular target: T1, IN-CTD-dCT (HIV-1, UniProt P12497 1367-1417); assay: EMSA; not affected by stem shortening; EMSA: 20 mM MES pH 6.0, 150 mM NaCl, 2 mM DTT, 2 mM MgCl2, BSA, 8% PEG8000, 37 C 30 min (IN-FLm 2 h at 4 C); BLI: 50 mM HEPES pH 7.5, 200 mM NaCl, 2 mM BME, 5%; settings: protein: recombinant; tags: N-terminal 6xHis; label: 5' 32P; hairpin
[3] = molecular target: T2, IN-FLm (HIV-1 integrase, mammalian expressed) (HIV-1, UniProt P12497 1148-1435); assay: EMSA; similar to wild type; EMSA: 20 mM MES pH 6.0, 150 mM NaCl, 2 mM DTT, 2 mM MgCl2, BSA, 8% PEG8000, 37 C 30 min (IN-FLm 2 h at 4 C); BLI: 50 mM HEPES pH 7.5, 200 mM NaCl, 2 mM BME, 5%; settings: protein: recombinant; tags: N-terminal Flag; label: 5' 32P; hairpin
IN-CTD-dCT [4] = molecular target: T1, IN-CTD-dCT; assay: BLI; 200 mM NaCl, 37 C; EMSA: 20 mM MES pH 6.0, 150 mM NaCl, 2 mM DTT, 2 mM MgCl2, BSA, 8% PEG8000, 37 C 30 min (IN-FLm 2 h at 4 C); BLI: 50 mM HEPES pH 7.5, 200 mM NaCl, 2 mM BME, 5%; settings: protein: recombinant; tags: N-terminal 6xHis; label: 3' biotin; hairpin
IN-CTD [5] = molecular target: T3, IN-CTD (HIV-1, UniProt P12497 1367-1435); assay: as above; settings: protein: recombinant; tags: N-terminal 6xHis; label: 3' biotin; hairpin
IN-CTD [6] = molecular target: T3, IN-CTD; assay: EMSA; EMSA: 20 mM MES pH 6.0, 150 mM NaCl, 2 mM DTT, 2 mM MgCl2, BSA, 8% PEG8000, 37 C 30 min (IN-FLm 2 h at 4 C); BLI: 50 mM HEPES pH 7.5, 200 mM NaCl, 2 mM BME, 5%; settings: protein: recombinant, tags: N-terminal 6xHis, label: 5' 32P
[7] = molecular target: T2, IN-FLm (HIV-1 integrase, mammalian …); assay: as above; settings: protein: recombinant, tags: N-terminal Flag, label: 5' 32P
IN-CTD-dCT [8] = molecular target: T1, IN-CTD-dCT; assay: as above; settings: protein: recombinant; tags: N-terminal 6xHis; label: 5' 32P; hairpin with bulge and hexaloop
[9] = molecular target: IN-FL (integrase, E. coli) (HIV-1 NL4-3 (pNL4-3), UniProt P12497 1148-1435); assay: as above; settings: protein: recombinant; tags: N-terminal 6xHis; label: 5' 32P; hairpin with bulge and hexaloop
[10] = hairpin with bulge and hexaloop

Molecule: CGUCCAUCUGGUCAUCUAGUGAUAUCAUCG [Bt-RNA(30)-mer]
- Kd [1]: 3840 nM

Molecule: GGGCCAGAUCUGAGCCUGGGAGCUCUCUGGCCC [Bt-TAR]
- Kd [1]: 1490 nM

B1: TAR-VSS (structured_RNA)
RNA: GGGUCUCUCUGGUUAGACCAGAUCUGAGCGCUCUCUGGCUAACUAGGGAACCC
- binding result (IN-CTD-dCT [2]): binds

B2: TAR-LS (structured_RNA)
RNA: GGGUCUCUCUGGUUAGACCAGAUCUGAGCGCUGGGACGCUCUCUGGCUAACUAGGGAACCC
- binding result [3]: binds

Molecule: GGGCCAGAUCUGAGCCUGGGAGCUCUCUGGCCC (structured_RNA) [Bt-TAR]
- Kd (IN-CTD-dCT [4]): 770 nM
- Kd (IN-CTD [5]): 320 nM

Molecule: GGGCACUGCUUAAGCCUCAAUAAAGCUUGCCUUGAGUGCUUCAAGUAGUG (structured_RNA) [polyA]
- binding result (IN-CTD [6]; hairpin): binds

B3: TAR-SS (structured_RNA)
RNA: GGGUCUCUCUGGUUAGACCAGAUCUGAGCUGGGACUCUCUGGCUAACUAGGGAACCC
- binding result (IN-CTD-dCT [2]): binds

Molecule: GGGCUCGGCUUGCUGAAGCGCGCACGGCAAGAGGCGAG (structured_RNA) [DIS]
- binding result (IN-CTD [6]; hairpin): binds

Molecule: CGUCCAUCUGGUCAUCUAGUGAUAUCAUCG (ssRNA) [RNA(30)-mer]
- binding result ([7]; weakly structured): binds

B4: SD/Psi (structured_RNA)
RNA: GGGCGACUGGUCAGUACGCCAAAAAUUUUGACUAGCGGAGGCUAGAAGGAG
- binding result (IN-CTD [6]; hairpin): binds

B5: TAR (structured_RNA)
RNA: GGGUCUCUCUGGUUAGACCAGAUCUGAGCCUGGGAGCUCUCUGGCUAACUAGGGAACCC
- binding result (IN-CTD-dCT [8]): binds
- binding result [9]: binds
- binding result [7, 10]: binds
- binding result (IN-CTD [6]; [10]): binds
